Experiments:
[1] = biological target: NAD(P)-dependent glucose 1-dehydrogenase from Bacillus sp. ZJ (Bacillus sp. ZJ); assay: SEC; gel filtration on a Zorbax Bio-series GF-450 column; standards lysozyme (14.3 kDa), chicken ovalbumin (45 kDa), bovine serum albumin fraction V (67 kDa), goat IgG (150 kDa); native mass estimated 120 kDa against 30 kDa on SDS-PAGE
BzGDH = biological target: T1, BzGDH (Bacillus sp. (in: firmicutes), UniProt A0A068FPP9); assay: NADH absorbance at […] nm, nonlinear Michaelis-Menten fit; assay type: biochemical, Bacillus sp. ZJ; settings: 100 mM sodium phosphate pH 8.0, 25 °C; 1 mM NAD; glucose 1-200 mM; kcat per subunit
T1 construct: full length, 261 residues (28 kDa predicted, 30 kDa SDS-PAGE, 120 kDa native), pET28a (NdeI/BamHI) in E. coli BL21(DE3), Ni-NTA purified, His tag removal not mentioned; N-terminus from primer MYSDLA

[2] = tested on: T2, NC(=O)c1ccc[n+]([C@@H]2O[C@H](COP(=O)(O)OP(=O)(O)OC[C@H]3O[C@@H](n4cnc5c(N)ncnc54)[C@H](OP(=O)(O)O)[C@@H]3O)[C@@H](O)[C@H]2O)c1; assay: purified protein; assay type: biochemical, Bacillus sp. ZJ; settings: 100 mM sodium phosphate pH 8.0, 25 °C, glucose given as 200 µM (standard assay 200 mM), NADP 0.01-0.2 mM, kcat per subunit, varied: cofactor
T2 construct: full length, 261 residues (28 kDa predicted, 30 kDa SDS-PAGE, 120 kDa native), pET28a (NdeI/BamHI) in E. coli BL21(DE3), Ni-NTA purified, His tag removal not mentioned; N-terminus from primer MYSDLA

[3] = tested on: T3, NC(=O)c1ccc[n+]([C@@H]2O[C@H](COP(=O)(O)OP(=O)(O)OC[C@H]3O[C@@H](n4cnc5c(N)ncnc54)[C@H](O)[C@@H]3O)[C@@H](O)[C@H]2O)c1; assay: purified protein; assay type: biochemical, Bacillus sp. ZJ; settings: 100 mM sodium phosphate pH 8.0, 25 °C, glucose given as 200 µM (standard assay 200 mM), NAD 0.01-0.2 mM, kcat per subunit, varied: cofactor
T3 construct: full length, 261 residues (28 kDa predicted, 30 kDa SDS-PAGE, 120 kDa native), pET28a (NdeI/BamHI) in E. coli BL21(DE3), Ni-NTA purified, His tag removal not mentioned; N-terminus from primer MYSDLA

“NAD(P)-dependent glucose 1-dehydrogenase from Bacillus sp. ZJ (enzyme)” was tested, and the stoichiometry N [1] was 4.

`OC[C@H]1OC(O)[C@H](O)[C@@H](O)[C@@H]1O` (stereo partly drawn) [D-glucose] showed a Km (BzGDH) of 17.1 ± 0.946 mM.

BzGDH (Bacillus sp. (in: firmicutes)) showed a Km [2] of 0.404 ± 0.088 mM, a kcat [2] of 74 ± 2.68 s⁻¹ and a kcat/Km [2] of 183000 M⁻¹ s⁻¹. For the same compound, the Km [3] was 0.072 ± 0.009 mM, the kcat [3] was 84.5 ± 2.17 s⁻¹ and the kcat/Km [3] was 1.17e+06 M⁻¹ s⁻¹.

From paper PMC5486021, “Biochemical and Computational Insights on a Novel Acid-Resistant and Thermal-Stable Glucose 1-Dehydrogenase” (International Journal of Molecular Sciences, 2017)
